Results taken from patent US20160011217A1 (NATIONAL CANCER CENTER, published 2016).

Biological target: T1, insoluble fibrin (fibrin plate, fibrin clot or tissue fibrin; species not stated for the experiment) (Homo sapiens (Human), UniProt P02671 36-630; P02675 45-491; P02679 27-433, Insoluble polymer of (alpha-beta-gamma)2 fibrin monomers, disulfide-bridged and possibly cross-linked by factor XIII. The letters give one copy of each chain only.)
T1 sequence (alpha): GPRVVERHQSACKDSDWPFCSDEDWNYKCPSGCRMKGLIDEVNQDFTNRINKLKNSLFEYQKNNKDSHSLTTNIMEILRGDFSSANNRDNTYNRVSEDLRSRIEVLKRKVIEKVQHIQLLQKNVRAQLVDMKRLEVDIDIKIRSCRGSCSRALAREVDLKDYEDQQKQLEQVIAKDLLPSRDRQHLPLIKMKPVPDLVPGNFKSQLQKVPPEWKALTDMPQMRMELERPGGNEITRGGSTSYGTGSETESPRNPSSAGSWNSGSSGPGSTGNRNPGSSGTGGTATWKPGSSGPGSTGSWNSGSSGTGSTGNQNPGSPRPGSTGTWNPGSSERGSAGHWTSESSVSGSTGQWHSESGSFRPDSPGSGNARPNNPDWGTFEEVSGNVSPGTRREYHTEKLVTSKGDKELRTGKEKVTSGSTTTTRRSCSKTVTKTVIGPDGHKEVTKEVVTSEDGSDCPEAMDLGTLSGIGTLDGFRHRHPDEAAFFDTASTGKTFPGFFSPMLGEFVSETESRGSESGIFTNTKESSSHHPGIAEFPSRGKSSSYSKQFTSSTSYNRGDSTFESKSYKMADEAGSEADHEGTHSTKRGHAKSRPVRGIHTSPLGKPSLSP
T1 sequence (beta): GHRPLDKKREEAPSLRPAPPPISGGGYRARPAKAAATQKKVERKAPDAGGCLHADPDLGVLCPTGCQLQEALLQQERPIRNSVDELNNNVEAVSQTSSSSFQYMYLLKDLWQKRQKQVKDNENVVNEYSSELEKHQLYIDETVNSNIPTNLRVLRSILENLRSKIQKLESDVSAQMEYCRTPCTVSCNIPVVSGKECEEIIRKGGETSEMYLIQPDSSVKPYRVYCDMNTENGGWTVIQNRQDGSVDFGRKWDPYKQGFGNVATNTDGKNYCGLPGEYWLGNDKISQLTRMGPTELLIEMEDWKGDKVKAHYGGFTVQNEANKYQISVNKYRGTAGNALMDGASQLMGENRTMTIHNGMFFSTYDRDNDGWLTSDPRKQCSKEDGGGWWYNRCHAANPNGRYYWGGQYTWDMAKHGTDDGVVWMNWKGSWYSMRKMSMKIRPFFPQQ
T1 sequence (gamma): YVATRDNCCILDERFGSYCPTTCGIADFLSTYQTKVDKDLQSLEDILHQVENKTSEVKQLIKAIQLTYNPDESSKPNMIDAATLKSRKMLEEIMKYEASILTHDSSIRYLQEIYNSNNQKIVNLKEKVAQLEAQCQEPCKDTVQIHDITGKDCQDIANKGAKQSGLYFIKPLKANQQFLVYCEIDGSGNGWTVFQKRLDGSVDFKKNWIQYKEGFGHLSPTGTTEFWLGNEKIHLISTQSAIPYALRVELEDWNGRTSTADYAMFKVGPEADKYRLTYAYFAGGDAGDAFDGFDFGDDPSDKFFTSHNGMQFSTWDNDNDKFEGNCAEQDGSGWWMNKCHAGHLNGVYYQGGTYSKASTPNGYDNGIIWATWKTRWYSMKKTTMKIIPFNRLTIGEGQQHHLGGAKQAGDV
Test: ELISA, fibrin plate against fibrinogen plate, antibody at 10 µg/mL, absorbance at 492 nm
Procedure: Each of the antibody solutions (100 μL each) at 10 μg/mL was added to the fibrin plate and the fibrinogen plate, and allowed to stand at room temperature for 1 hour. After washing with TBS-T, Bethyl Anti-Human IgG-HRP (×1000 dilution) or Bethyl Anti-Mouse IgG-HRP (×10000 dilution) was added as a secondary antibody. Then, after washing with TBS-T, colorimetry was conducted with OPD for 10 minutes, and measurement was conducted at an absorption wavelength of 492 nm.

B1: Fib-0355 antibody (monoclonal antibody produced by hybridoma Fib-0355) (antibody, V domains shown)
VH: GPELKKPGETVKISCKASGYTFTNYGMNWVKQAPGKGLKWMGWINTNTGEPTYAEEFKGRFAFSLETSASTAYLQINNLKNEDTATYFCARLLDYWGQGTTLTVSS
VL: PSSLAVSAGEKVTMSCKSSQSVLYSSNQKNYLAWYQQKPGQSPKLLIYWASTRESGVPDRFTGSGSGTDFTLTISSVQAEDLAVYYCQQYLSSYTFGG
notes: Mouse hybridoma monoclonal antibody, detected with anti-mouse IgG-HRP; also called anti-β chain antibody
- ratio of the affinity for insoluble fibrin to the affinity for fibrinogen (absorbance at 492 nm): 13 times
